Results: patent US20030119023, “Nucleic acid binding polypeptides characterized by flexible linkers connected nucleic acid binding modules” (published 2003)

What was measured:
3x2F ZGLS = 3x2F ZGLS (artificial); assay: EMSA; apparent Kd; settings: label: 32P
Description: (§1) DNA binding reactions contain the appropriate zinc-finger peptide, binding site and 1 μg competitor DNA (poly dI-dC) in a total volume of 10 μl, which contains: 20 mM Bis-tris propane (pH 7.0), 100 mM NaCl, 5 mM MgCl₂, 50 μM ZnCl₂, 5 mM DTT, 0.1 mg/ml BSA, 0.1% Nonidet P40. Incubations are performed at room temperature for 1 hour.
(§2) Dissociation constants are determined in parallel to the calculation of active peptide concentration. Serial 3, 4 or 5-fold dilutions of crude peptide are made and incubated with radiolabelled binding site (0.1 pM-500 pM depending on the peptide), as above. Samples are run on 7% native polyacrylamide gels and the radioactive signals quantitated by PhosphorImager analysis. The data is then analysed according to linear transformation of the binding equation and plotted in CA-Cricket Graph III (Computer Associates Inc. NY) to generate the apparent dissociation constants. The Kd values reported are the average of at least two separate studies.
(§3) First the 3x2F ZGS and ZGL peptides are titrated against 12/34/56 (three 6 bp subsites separated by 1 bp, which is represented by a single ‘/’ in the binding site name) and 12//34//56 (three 6 bp subsites separated by 2 bps) binding sites. […] Next, the 3x2F ZGSL and 3x2F ZGLS peptides are targeted against the three non-contiguous sequences: 1234/56, 12/3456 and 12//34//56. […] 3x2F ZGLS show a similar trend in binding affinities.

3x2F ZGL = 3x2F ZGL (artificial); assay: EMSA; apparent Kd; settings: label: 32P
Description: as §1, §2, §3

3x2F ZGSL = 3x2F ZGSL (artificial); assay: EMSA; apparent Kd; settings: label: 32P
Description: as §1, §2, §3

[1] = target: Zif268 (wild-type ZIF, three-finger) (UniProt P08046 P08046:333-421); assay: EMSA; Bis-tris propane pH 7.0, 100 mM NaCl, 5 mM MgCl2, 50 uM ZnCl2, room temperature
[2] = target: ZIF-ZnF-GAC (serine-finger linker) (artificial); assay: EMSA; settings: label: 32P
Description: as §1
For this purpose a ‘neutral’ finger is created by replacing the DNA binding residues (those at positions −1, 2, 3, and 6) of wild type ZIF268 finger 2, with serine residues. Serine can act as either an H-bond acceptor or donator, and can therefore interact with all four bases in DNA. This new finger, denoted “ZnF” and flanked by two GERP linkers, is used to join the three-finger peptides of ZIF and the GAC-clone, creating the seven-finger array ZIF-ZnF-GAC (FIG. 17). This peptide is targeted against non-contiguous sites comprising the 9 bp ZIF and GAC-clone recognition sequences separated by 2, 3, 4 or 5 bps of DNA, and also sites bsA and bsC for comparison (FIG. 21).

3x2F ZGS [3] = target: 3x2F ZGS (artificial); assay: EMSA; apparent Kd; settings: label: 32P
Description: as §1, §2, §3

2x3F ZIF-GAC = 2x3F ZIF-GAC (artificial); assay: EMSA; apparent Kd; settings: label: 32P
Description: as §1, §2

3x2F ZGS [4] = target: 3x2F ZGS (artificial); assay: EMSA; apparent Kd; settings: label: 32P; remark: listed apart in the source
Description: as §1, §2

[5] = target: TF(1-4)-ZIF (TFIIIA F1-4 fused to Zif268) (artificial); assay: EMSA; apparent Kd; table prints gap as X7; settings: label: 32P
Description: as §1, §2
(§4) The TF(1-4)-ZIF and TF(1-3)-flex-ZIF peptides are tested against the non-contiguous TF-5,6,7,8,9-Z sites. In these first experiments the DNA composition of the non-bound region is based on the endogenous TFIIIA target site. […] The target sites with 5, 6 or 9 bp gaps are bound at least 5-fold weaker (FIG. 27A). […]

[6] = target: TF(1-4)-ZIF (TFIIIA F1-4 fused to Zif268) (artificial); assay: EMSA; apparent Kd; table prints gap as X6; settings: label: 32P
Description: as §1, §2, §4

[7] = target: TF(1-4)-ZIF (TFIIIA F1-4 fused to Zif268) (artificial); assay: EMSA; apparent Kd; table prints gap as X9; settings: label: 32P
Description: as §1, §2, §4

[8] = target: TF(1-4)-ZIF (TFIIIA F1-4 fused to Zif268) (artificial); assay: EMSA; apparent Kd; table prints gap as X8; settings: label: 32P
Description: as §1, §2, §4

[9] = target: TF(1-4)-ZIF (TFIIIA F1-4 fused to Zif268) (artificial); assay: EMSA; no preference for gap composition (data not shown); settings: label: 32P
[10] = target: TF(1-4)-ZIF (TFIIIA F1-4 fused to Zif268) (artificial); assay: EMSA; apparent Kd; table prints gap as X5; settings: label: 32P
Description: as §1, §2

Sequence of ZIF-ZnF-GAC (serine-finger linker) (artificial) (chain, as listed by the source): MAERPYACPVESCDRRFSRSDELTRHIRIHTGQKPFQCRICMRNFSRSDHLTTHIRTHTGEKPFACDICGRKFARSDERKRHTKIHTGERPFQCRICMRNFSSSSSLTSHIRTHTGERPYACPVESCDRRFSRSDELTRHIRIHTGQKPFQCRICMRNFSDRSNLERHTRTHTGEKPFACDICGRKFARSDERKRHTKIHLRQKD
Sequence of 3x2F ZGS (artificial) (chain, as listed by the source): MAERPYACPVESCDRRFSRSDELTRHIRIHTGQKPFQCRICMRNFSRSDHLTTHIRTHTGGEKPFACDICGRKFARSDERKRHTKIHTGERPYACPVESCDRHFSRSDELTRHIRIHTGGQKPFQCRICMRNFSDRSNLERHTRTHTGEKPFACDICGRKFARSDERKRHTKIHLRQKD
Sequence of 2x3F ZIF-GAC (artificial) (chain, as listed by the source): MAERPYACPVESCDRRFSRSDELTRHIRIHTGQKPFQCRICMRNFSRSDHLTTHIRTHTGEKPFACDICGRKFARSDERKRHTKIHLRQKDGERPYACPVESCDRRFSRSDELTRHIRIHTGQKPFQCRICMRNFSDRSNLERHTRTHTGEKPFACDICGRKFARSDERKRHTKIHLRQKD
Sequence of 3x2F ZGLS (artificial) (chain, as listed by the source): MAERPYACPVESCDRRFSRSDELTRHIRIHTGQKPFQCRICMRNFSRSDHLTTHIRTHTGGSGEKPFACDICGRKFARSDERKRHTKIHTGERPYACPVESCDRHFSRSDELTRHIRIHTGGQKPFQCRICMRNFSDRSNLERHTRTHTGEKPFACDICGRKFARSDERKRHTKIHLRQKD
Sequence of 3x2F ZGSL (artificial) (chain, as listed by the source): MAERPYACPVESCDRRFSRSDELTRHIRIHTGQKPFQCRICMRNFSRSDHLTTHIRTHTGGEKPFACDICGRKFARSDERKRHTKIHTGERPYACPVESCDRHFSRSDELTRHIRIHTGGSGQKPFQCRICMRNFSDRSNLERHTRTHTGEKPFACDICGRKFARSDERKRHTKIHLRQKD
Sequence of TF(1-4)-ZIF (TFIIIA F1-4 fused to Zif268) (artificial) (chain, as listed by the source): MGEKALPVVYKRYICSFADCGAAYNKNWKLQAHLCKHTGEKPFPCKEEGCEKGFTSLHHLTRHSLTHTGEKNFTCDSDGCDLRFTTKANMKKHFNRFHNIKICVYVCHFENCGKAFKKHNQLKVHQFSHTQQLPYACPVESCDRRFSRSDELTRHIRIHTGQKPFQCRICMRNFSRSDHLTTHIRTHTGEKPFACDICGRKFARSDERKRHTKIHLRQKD
Sequence of 3x2F ZGL (artificial) (chain, as listed by the source): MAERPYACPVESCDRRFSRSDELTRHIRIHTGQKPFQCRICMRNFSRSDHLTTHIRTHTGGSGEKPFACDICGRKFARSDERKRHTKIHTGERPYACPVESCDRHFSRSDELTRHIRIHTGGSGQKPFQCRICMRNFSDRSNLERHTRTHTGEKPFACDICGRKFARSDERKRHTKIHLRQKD

B1: bsE (12//34//56) (dsDNA)
DNA 1: GCGGAGTCGCGGCGTCTGGGCG
DNA 2: CGCCCAGACGCCGCGACTCCGC
B1 showed a Kd (3x2F ZGLS) of 12000 pM, a Kd (3x2F ZGL) of 11000 pM and a Kd (3x2F ZGSL) of 12000 pM.

B2: bsA (ZIF site) (dsDNA)
DNA 1: GCGTGGGCG
DNA 2: CGCCCACGC
Work on B2 yielded a Kd [1] of 450 pM.

B3: Z2G (dsDNA)
DNA 1: GCGGACGCGGTGCGTGGGCG
DNA 2: CGCCCACGCACCGCGTCCGC
B3 gave a binding signal [2] of at least 500 fold stronger than bsA.

B4: bsF (1234/56 in Table 5) (dsDNA)
DNA 1: GCGGACTGCGGCGTGGGCG
DNA 2: CGCCCACGCCGCAGTCCGC
In the case of B4, the Kd (3x2F ZGLS) is reported as 89 pM, the Kd (3x2F ZGS [3]) is reported as 54 pM and the Kd (3x2F ZGSL) is reported as 3 pM.

B5: bsG (12/3456 in Table 5) (dsDNA)
DNA 1: GCGGACGCGGCGTTGGGCG
DNA 2: CGCCCAACGCCGCGTCCGC
B5 gave a Kd (3x2F ZGLS) of 5 pM, a Kd (3x2F ZGS [3]) of 77 pM and a Kd (3x2F ZGSL) of 73 pM.

B6: bs2 (123/56) (dsDNA)
DNA 1: GCGGACTGCGTGGGCG
DNA 2: CGCCCACGCAGTCCGC
Binder B6 has a Kd (2x3F ZIF-GAC) of 14 pM and a Kd (3x2F ZGS [4]) of 630 pM.

B7: bs4 (123///56) (dsDNA)
DNA 1: GCGGACATCGCGTGGGCG
DNA 2: CGCCCACGCGATGTCCGC
In the case of B7, the Kd (2x3F ZIF-GAC) is reported as 15 pM and the Kd (3x2F ZGS [4]) is reported as 890 pM.

B8: bs3 (123//56) (dsDNA)
DNA 1: GCGGACTCGCGTGGGCG
DNA 2: CGCCCACGCGAGTCCGC
Binder B8 has a Kd (2x3F ZIF-GAC) of 14 pM and a Kd (3x2F ZGS [4]) of 270 pM.

B9: Z4G (dsDNA)
DNA 1: GCGGACGCGTAGTGCGTGGGCG
DNA 2: CGCCCACGCACTACGCGTCCGC
B9 showed a binding signal [2] of at least 500 fold stronger than bsA.

B10: bsD (12/34/56) (dsDNA)
DNA 1: GCGGACTGCGGCGTTGGGCG
DNA 2: CGCCCAACGCCGCAGTCCGC
Work on B10 yielded a Kd (3x2F ZGLS) of 120 pM, a Kd (3x2F ZGL) of 5 pM and a Kd (3x2F ZGS [3]) of 18000 pM. It also gave a Kd (3x2F ZGSL) of 110 pM.

B11: TF7Z (bsC1) (dsDNA)
DNA 1: GCGTGGGCGAGTACCTGGATGGGAGAC
DNA 2: GTCTCCCATCCAGGTACTCGCCCACGC
With B11 the Kd [5] was 3 pM.

B12: TF6Z (bsB1) (dsDNA)
DNA 1: GCGTGGGCGGTACCTGGATGGGAGAC
DNA 2: GTCTCCCATCCAGGTACCGCCCACGC
With B12 the Kd [6] was 17 pM.

B13: Z3G (dsDNA)
DNA 1: GCGGACGCGAGTGCGTGGGCG
DNA 2: CGCCCACGCACTCGCGTCCGC
In the case of B13, the binding signal [2] is reported as at least 500 fold stronger than bsA.

B14: TF9Z (bsE1) (dsDNA)
DNA 1: GCGTGGGCGTTAGTACCTGGATGGGAGAC
DNA 2: GTCTCCCATCCAGGTACTAACGCCCACGC
With B14 the Kd [7] was 15 pM.

B15: TF8Z (bsD1) (dsDNA)
DNA 1: GCGTGGGCGTAGTACCTGGATGGGAGAC
DNA 2: GTCTCCCATCCAGGTACTACGCCCACGC
B15 was tested, and the Kd [8] was 3 pM.

B16: bsG1 (dsDNA)
DNA 1: GCGTGGGCGCTTGACGGATGGGAGAC
DNA 2: GTCTCCCATCCGTCAAGCGCCCACGC
B16: binds [9].

B17: TF5Z (bsA1) (dsDNA)
DNA 1: GCGTGGGCGTACCTGGATGGGAGAC
DNA 2: GTCTCCCATCCAGGTACGCCCACGC
In the case of B17, the Kd [10] is reported as 21 pM.

B18: bsH1 (dsDNA)
DNA 1: GCGTGGGCGAAAAAAGGATGGGAGAC
DNA 2: GTCTCCCATCCTTTTTTCGCCCACGC
B18: binds [9].

B19: bs1 (12356) (dsDNA)
DNA 1: GCGGACGCGTGGGCG
DNA 2: CGCCCACGCGTCCGC
B19 was tested, and the Kd (2x3F ZIF-GAC) was 360 pM and the Kd (3x2F ZGS [4]) was 22000 pM.

B20: Z5G (dsDNA)
DNA 1: GCGGACGCGCTAGTGCGTGGGCG
DNA 2: CGCCCACGCACTAGCGCGTCCGC
B20 gave a binding signal [2] of at least 500 fold stronger than bsA.
